Measurements published in article PMC3235114, “Characterization of the Partitioning System of Myxococcus Plasmid pMF1”.

Tests used:
[1] = biological target: T1, ParB (ORF23, pMF1.23 product), His-tagged (Myxococcus fulvus 124B02 plasmid pMF1, UniProt B0YR32 12-86); test: EMSA; EMSA: 12 mM HEPES, 4 mM Tris-HCl pH 8.0, 60 mM KCl, 5 mM MgCl2, 0.1 mM EDTA, 1 ug poly(dI-dC), 2% glycerol, 12 pmol probe, 30 min 30 C; footprint: HEMG (50 mM EDTA as printed, 50 mM KCl, 12.5 mM HEPES pH 7.6, 6 mM MgCl2, 5% glycerol), 20 mM HEPES pH 7.6, 5 ug poly(dI-dC), 30 min 30 C; conditions: protein: recombinant; tags: N-terminal His6 (pET-15b); label: 3' biotin; blunt
T1 sequence: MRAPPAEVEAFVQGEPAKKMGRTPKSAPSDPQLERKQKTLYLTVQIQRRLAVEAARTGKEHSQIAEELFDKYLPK

[2] = biological target: T2, ParC (ORF21, pMF1.21 product) (Myxococcus fulvus 124B02 plasmid pMF1, UniProt B0YR30 1-87); test: EMSA; data not shown; EMSA: 12 mM HEPES, 4 mM Tris-HCl pH 8.0, 60 mM KCl, 5 mM MgCl2, 0.1 mM EDTA, 1 ug poly(dI-dC), 2% glycerol, 12 pmol probe, 30 min 30 C; footprint: HEMG (50 mM EDTA as printed, 50 mM KCl, 12.5 mM HEPES pH 7.6, 6 mM MgCl2, 5% glycerol), 20 mM HEPES pH 7.6, 5 ug poly(dI-dC), 30 min 30 C; conditions: protein: recombinant, tags: His6 (pET-15b), label: 3' biotin
T2 sequence: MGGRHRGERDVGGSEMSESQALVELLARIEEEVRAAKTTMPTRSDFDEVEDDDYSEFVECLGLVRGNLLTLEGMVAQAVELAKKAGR

[3] = biological target: T1, ParB (ORF23, pMF1.23 product), …; test: EMSA; poly(dI-dC), 5 mM MgCl2; unlabeled ItA competes; EMSA: 12 mM HEPES, 4 mM Tris-HCl pH 8.0, 60 mM KCl, 5 mM MgCl2, 0.1 mM EDTA, 1 ug poly(dI-dC), 2% glycerol, 12 pmol probe, 30 min 30 C; footprint: HEMG (50 mM EDTA as printed, 50 mM KCl, 12.5 mM HEPES pH 7.6, 6 mM MgCl2, 5% glycerol), 20 mM HEPES pH 7.6, 5 ug poly(dI-dC), 30 min 30 C; conditions: protein: recombinant; tags: N-terminal His6 (pET-15b); label: 3' biotin; blunt
[4] = biological target: T3, ParB (ORF23, pMF1.23 product), His-tag free (Myxococcus fulvus 124B02 plasmid pMF1, UniProt B0YR32 12-86); test: EMSA; similar affinity to His-tagged protein; EMSA: 12 mM HEPES, 4 mM Tris-HCl pH 8.0, 60 mM KCl, 5 mM MgCl2, 0.1 mM EDTA, 1 ug poly(dI-dC), 2% glycerol, 12 pmol probe, 30 min 30 C; footprint: HEMG (50 mM EDTA as printed, 50 mM KCl, 12.5 mM HEPES pH 7.6, 6 mM MgCl2, 5% glycerol), 20 mM HEPES pH 7.6, 5 ug poly(dI-dC), 30 min 30 C; conditions: protein: recombinant; tags: none; label: 3' biotin; blunt
T3 sequence: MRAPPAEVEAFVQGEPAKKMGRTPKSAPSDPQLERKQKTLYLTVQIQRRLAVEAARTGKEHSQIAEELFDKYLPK

[5] = biological target: T1, ParB (ORF23, pMF1.23 product), …; test: EMSA; unlabeled ItB competes; EMSA: 12 mM HEPES, 4 mM Tris-HCl pH 8.0, 60 mM KCl, 5 mM MgCl2, 0.1 mM EDTA, 1 ug poly(dI-dC), 2% glycerol, 12 pmol probe, 30 min 30 C; footprint: HEMG (50 mM EDTA as printed, 50 mM KCl, 12.5 mM HEPES pH 7.6, 6 mM MgCl2, 5% glycerol), 20 mM HEPES pH 7.6, 5 ug poly(dI-dC), 30 min 30 C; conditions: protein: recombinant; tags: N-terminal His6 (pET-15b); label: 3' biotin; blunt
[6] = biological target: T1, ParB (ORF23, pMF1.23 product), …; test: EMSA; up to 1000 ng protein; EMSA: 12 mM HEPES, 4 mM Tris-HCl pH 8.0, 60 mM KCl, 5 mM MgCl2, 0.1 mM EDTA, 1 ug poly(dI-dC), 2% glycerol, 12 pmol probe, 30 min 30 C; footprint: HEMG (50 mM EDTA as printed, 50 mM KCl, 12.5 mM HEPES pH 7.6, 6 mM MgCl2, 5% glycerol), 20 mM HEPES pH 7.6, 5 ug poly(dI-dC), 30 min 30 C; conditions: protein: recombinant; tags: N-terminal His6 (pET-15b); label: 3' biotin

B1: ItD (dsDNA)
DNA 1: AGAAGTCCAGACATCTGGACATTCAGAAGTCTAGACATCTGGATGTCCAGATGGGG
DNA 2: CCCCATCTGGACATCCAGATGTCTAGACTTCTGAATGTCCAGATGTCTGGACTTCT
B1: binds [1].

B2: ItA (dsDNA)
DNA 1: GGAAGTCTGGAAGTCTAGATGTCTAGATGTTTGAATGTTTGGAGTGGG
DNA 2: CCCACTCCAAACATTCAAACATCTAGACATCTAGACTTCCAGACTTCC
B2: no binding ([2]; blunt); binds [3]; binds [4].

B3: ItB (dsDNA)
DNA 1: GTGATGTCTAGAGGTCTGGATGTCTAGATGTCTAGATGTCT
DNA 2: AGACATCTAGACATCTAGACATCCAGACCTCTAGACATCAC
B3: binds [5].

B4: non-iteron fragment (dsDNA)
DNA 1: CGGGCGTCACAGGGGGGAACGCGATGTTGGAGGGTCGGAAATGAGCGAGTCG
DNA 2: CGACTCGCTCATTTCCGACCCTCCAACATCGCGTTCCCCCCTGTGACGCCCG
B4: no binding [2]; no binding [6].

B5: ItE (dsDNA)
DNA 1: AAGTGTCTAGATGTCTAGATGTCT
DNA 2: AGACATCTAGACATCTAGACACTT
B5: binds [1].

B6: ItC (dsDNA)
DNA 1: AGACATCTGGAAGTCTGGATGTC
DNA 2: GACATCCAGACTTCCAGATGTCT
B6: binds [1].

B7: ItF (dsDNA)
DNA 1: AGAGGTCTAGGTGTCTGGAAGTCTGGAGGTCTGGATGTC
DNA 2: GACATCCAGACCTCCAGACTTCCAGACACCTAGACCTCT
B7: binds [1].
